In publication PMC2536759 (Cancer research, 2008):
Where two headings read alike, the source gives them in different places.

How the values were obtained:
His-caspase-8(184-384) [1] = molecular target: T1, His-caspase-8(184-384) (UniProt Q14790 184-384); assay: pull-down
His-caspase-8(184-384) [2] = molecular target: T1, His-caspase-8(184-384); assay: pull-down; remark: listed apart in the source

T1 sequence (Q14790 184-384): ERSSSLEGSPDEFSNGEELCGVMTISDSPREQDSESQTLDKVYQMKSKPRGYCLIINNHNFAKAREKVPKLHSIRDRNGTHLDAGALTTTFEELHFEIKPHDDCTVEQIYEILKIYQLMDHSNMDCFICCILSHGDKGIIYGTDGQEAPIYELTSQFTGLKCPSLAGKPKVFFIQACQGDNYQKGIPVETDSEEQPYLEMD

Binder	binding result (His-caspase-8(184-384) [1])	binding result (His-caspase-8(184-384) [2])
CQCRRKNYGQLDIFPARDTY (domain or fragment, human) [GST-MUC1-CD(1-20)]	binds	
CQCRRKNYGQLDIFPARDTY [synthetic MUC1-CD(1-20) peptide]		binds
